Experimental data taken from patent publication US20260055179A1 (ALENTIS THERAPEUTICS, published 2026).

Biological target: T1, human Claudin-1 (CLDN1) (human, UniProt O95832 1-211)
T1 construct: whole, on cells; Transmembrane tight-junction protein, endogenously expressed on primary human cholangiocytes in the flow cytometry assay
T1 sequence (looked up): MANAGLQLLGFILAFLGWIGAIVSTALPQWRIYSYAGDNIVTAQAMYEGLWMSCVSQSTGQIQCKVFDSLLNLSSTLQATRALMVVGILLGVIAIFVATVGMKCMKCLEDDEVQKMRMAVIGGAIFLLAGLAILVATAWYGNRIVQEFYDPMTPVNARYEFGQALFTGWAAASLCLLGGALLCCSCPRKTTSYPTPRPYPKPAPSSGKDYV
Assay: flow cytometry on primary human cholangiocytes (HBEpiC) after 10 ng/ml TNFalpha for 24 h; anti-human AF647 secondary antibody
Procedure: Primary human cholangiocytes were purchased from Innoprot, Bizkaia, Spain (Human Biliary Epithelial Cells, HBEpiC, ref. P10654; Batch #21614) and cultured on poly-1-lysine-coated surfaces according to manufacturer's instructions. Following stimulation, with 10 ng/ml TNFα for 24 hours, cells were harvested for assessment of CLDN1 expression by flow cytometry using anti-CLDN1 mAb H3L3 (Colpitts et al. 2018) and an anti-human AF647-conjugated secondary antibody.

B1: anti-CLDN1 mAb H3L3 (antibody, human IgG1, kappa, V domains shown)
VH: QVQLVESGGGVVQPGRSLRLSCLGSGFSFSSYGMNWVRQAPGKGLEWVASISPSGSYFYYADSVKGRFTISRDNSKNTLYLQMTSLRAEDTAIYYCARLPGFNPPFDHWGQGTLVTVSS
VL: DIQMTQSPSSLSASVGDRVTITCKASQNVGGNVDWYQWKPGKAPKLLIYGASNRYTGVPDRFRGSGSGTDFTLTISSLQPEDVATYYCLQYKNNPWTFGGGTKVEIKR
notes: Humanized anti-Claudin-1 monoclonal antibody; also called CLDN1 H3L3; CLDN1-specific H3L3 mAb
B1: binds.
